Results as given in US20130142732, “RECOMBINANT FLUORESCENT NANOPARTICLES” (KOREA UNIVERSITY RESEARCH AND BUSINESS FOUNDATION, published 2013).

How the values were obtained:
PDGF-BB [1] = target: T1, PDGF-BB (UniProt P01127 P01127:82-190); test: printed as 5.0 x 1011 mol/L, exponent sign lost; sandwich plate assay with biotin-aptamer capture, PBS, 37 C, linearized Langmuir; settings: tags: Sigma-Aldrich; chain copies: 2 (homodimer, inferred); label: Cy3
Experimental: (§1) On the Basis of the linearized form of the Langmur absorption isotherm and the linear curve of FIG. 5C, the dissociation constants (KD) were determined by a PDGF-BB analysis method using each of the DNA-aptamer-conjugated gFFNP, eGFP, and Cy3, and the results are shown in Table 7.

PDGF-BB [2] = target: T1, PDGF-BB; test: printed as 4.0 x 1011 mol/L, exponent sign lost; sandwich plate assay with biotin-aptamer capture, PBS, 37 C, linearized Langmuir; settings: tags: Sigma-Aldrich; chain copies: 2 (homodimer, inferred); label: eGFP
Experimental: as §1

T1 sequence (P01127 82-190, one chain of several): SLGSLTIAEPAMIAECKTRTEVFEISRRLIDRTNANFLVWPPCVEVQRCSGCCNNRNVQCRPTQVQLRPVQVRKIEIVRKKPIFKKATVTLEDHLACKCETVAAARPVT

CACAGGCTACGGCACGTAGAGCATCACCATGATCCTGTGT (ssDNA, 5'-Cy3) [PDGF-BB DNA aptamer Cy3-modified]
Kd (PDGF-BB [1]): 0.05 nM

CACAGGCTACGGCACGTAGAGCATCACCATGATCCTGTGT (ssDNA, 5'-NH2-(CH2)6, SSMCC-coupled to eGFP(S175C)) [PDGF-BB DNA aptamer conjugated to eGFP]
Kd (PDGF-BB [2]): 0.04 nM
